Experimental data taken from patent publication US11795460B2, “Compositions and methods for TTR gene editing and treating ATTR amyloidosis” (Intellia Therapeutics, Inc., priority 2017, dated 2023).
Strand notation (5' to 3'): a small letter for the sugar, then the base; units joined by * are phosphorothioate-linked, units joined directly phosphodiester-linked; [ ] holds rarer units or linkages, { } end groups; capitals alone tell only the bases. m = 2'-O-methyl; r = 2'-OH (RNA)

Key:
[1] = test system: potential off-target sites; experiment: Targeted amplicon sequencing of potential off-target sites in PHH treated with LNPs (Tables 31-33); type: cell-based, human; conditions: for Indel Frequency (using LNP with 100 ng Cas9 mRNA and 14.68 nM gRNA) / Indel rate at the on-target site / Indels at in silico predicted off-target sites / Number of potential off-target sites identified by the oligo insertion assay at which indels were detected: PHH treated with LNP; for Indel Frequency (using LNP with 100 ng Cas9 mRNA and 14.68 nM gRNA): NGS targeted amplicon sequencing; for Indel rate at the on-target site / Indels at in silico predicted off-target sites / Number of potential off-target sites identified by the oligo insertion assay at which indels were detected: 100 ng Cas9 mRNA (SEQ ID NO:1), near-saturating dose; for Indel rate at the on-target site: gRNA 14.68 nM; for Number of potential off-target sites identified by the oligo insertion assay at which indels were detected: indels at low levels; for On-target indel rate at highest concentration without detected off-target sites / Highest gRNA concentration at which the potential off-target sites were no longer detected: PHH; for On-target indel rate at highest concentration without detected off-target sites: G000480 at 0.57 nM, G000486 at 15.51 nM gRNA; for Highest gRNA concentration at which the potential off-target sites were no longer detected: LNP dose response, 11 points 0.001-46.55 nM gRNA
Protocol: The HEK293_Cas9 cells used in Example 5 for detecting potential off-targets constitutively overexpress Cas9, leading to a higher number of potential off-target “hits” as compared to a transient delivery paradigm in various cell types. […] Accordingly, potential off-target sites identified by an oligo insertion method as used in Example 5 may be validated using targeted sequencing of the identified potential off-target sites.
In one approach, primary hepatocytes are treated with LNPs comprising Cas9 mRNA and a sgRNA of interest (e.g., a sgRNA having potential off-target sites for evaluation). The primary hepatocytes are then lysed and primers flanking the potential off-target site(s) are used to generate an amplicon for NGS analysis. Identification of indels at a certain level may validate potential off-target site, whereas the lack of indels found at the potential off-target site may indicate a false positive in the HEK293_Cas9 cell assay.
Following the identification of potential off-target sites in […] via the oligo insertion assay, certain potential sites were further evaluated by targeted amplicon sequencing, e.g., as described in Example 6. In addition to the potential off-target sites identified by the oligo insertion strategy, additional potential off-target sites identified by in silico prediction were included in the analysis.
To this end, PHH were treated with LNPs comprising 100 ng of Cas9 mRNA (SEQ ID NO:1) and the gRNA of interest at 14.68 nM (in a 1:1 ratio by weight), as described in Example 4. The LNPs were prepared using the cross-flow procedure described above and purified and concentrated using PD-10 columns and Amicon centrifugal filter units, respectively. The LNPs were formulated with an N:P ratio of 6.0 and contained Lipid A, Cholesterol, DSPC, and PEG2k-DMG in a 50:38:9:2 molar ratio, respectively. Following LNP treatment, isolated genomic DNA was analyzed by NGS (e.g., as described in Examples 1 and 6) to determine whether indels could be detected at the potential off-target site, which would be indicative of a Cas9-mediated cleavage event. Tables 31 and 32 show the potential off-target sites that were evaluated for the gRNAs G000480 and G000486, respectively.
As shown in FIGS. 21A-B and 22A-B and Table 33 below, indels were detected at low levels for only two of the potential off-target sites identified by the oligo insertion assay for G000480, and only one for G000486. […] Further, indels were only detected at these sites using a near-saturating dose of LNP, as the indel rates observed at the on-target sites for G000480 and G000486 were ˜97% and ˜91%, respectively (See Table 33).
A dose response assay was then performed in order to determine the highest dose of LNP in which no off-targets were detected. PHH were treated with LNPs comprising either G000480 or G000486 as described in Example 4. The doses ranged across 11 points with respect to gRNA concentration (0.001 nM, 0.002 nM, 0.007 nM, 0.02 nM, 0.06 nM, 0.19 nM, 0.57 nM, 1.72 nM, 5.17 nM, 15.51 nM, and 46.55 nM).

human TTR sequence = experiment: Liver editing in humanized TTR mice dosed with LNP formulations (Table 26); type: in vivo, mouse; conditions: for % Editing: Table 26, liver editing, LNP Formulation Numbers 6-16, 1 mg/kg (total RNA content); for Liver editing: LNP Formulation Numbers 1-5, Cas9 mRNA SEQ ID NO:2, 2 mg/kg total RNA, mean values, FIG. 9
Protocol: Unless otherwise noted, CD-1 female mice, ranging from 6-10 weeks of age were used in each study. Animals were weighed and grouped according to body weight for preparing dosing solutions based on group average weight. LNPs were dosed via the lateral tail vein in a volume of 0.2 mL per animal (approximately 10 mL per kilogram body weight). […] Body weight was measured at twenty-four hours post-administration, and animals were euthanized at various time points by exsanguination via cardiac puncture under isoflourane anesthesia. Blood was collected into serum separator tubes or into tubes containing buffered sodium citrate for plasma as described herein. For studies involving in vivo editing, liver tissue was collected from the median lobe or from three independent lobes (e.g., the right median, left median, and left lateral lobes) from each animal for DNA extraction and analysis.
To quantitatively determine the efficiency of editing at the target location in the genome, sequencing was utilized to identify the presence of insertions and deletions introduced by gene editing.
Primers were designed around the target site within the gene of interest (e.g. TTR), and the genomic area of interest was amplified.
Additional PCR was performed per the manufacturer's protocols (Illumina) to add chemistry for sequencing. The amplicons were sequenced on an Illumina MiSeq instrument. The reads were aligned to a reference genome (e.g., the human reference genome (hg38), the cynomologus reference genome (mf5), the rat reference genome (rn6), or the mouse reference genome (mm10)) after eliminating those having low quality scores. The resulting files containing the reads were mapped to the reference genome (BAM files), where reads that overlapped the target region of interest were selected and the number of wild type reads versus the number of reads which contain an insertion, substitution, or deletion was calculated.
The editing percentage (e.g., the “editing efficiency” or “percent editing” or “indel frequency”) is defined as the total number of sequence reads with insertions/deletions (“indels”) or substitutions over the total number of sequence reads, including wild type.
Mice humanized with respect to the TTR gene were dosed with LNP formulations 701-704 containing the guides indicated in Table 25 (5 mice per formulation). These humanized TTR mice were engineered such that a region of the endogenous murine TTR locus was deleted and replaced with an orthologous human TTR sequence so that the locus encodes a human TTR protein. For comparison, 6 mice with murine TTR were dosed with LNP700, containing a guide (G000282) targeting murine TTR. […]

[2] = Off-Target site INS-OT.4 (of the respective guide)

| Molecule | Indel Frequency (using LNP with 100 ng Cas9 mRNA and 14.68 nM gRNA) [1, 2] | Indel Frequency (using LNP with 100 ng Cas9 mRNA and 14.68 nM gRNA) ([1]; On-Target site) | Indel rate at the on-target site [1] | Indels at in silico predicted off-target sites [1] | Number of potential off-target sites identified by the oligo insertion assay at which indels were detected [1] | On-target indel rate at highest concentration without detected off-target sites [1] | Highest gRNA concentration at which the potential off-target sites were no longer detected [1] | Indel Frequency (using LNP with 100 ng Cas9 mRNA and 14.68 nM gRNA) ([1]; Off-Target site INS-OT.2) | % Editing (human TTR sequence) | Liver editing (human TTR sequence) |
| --- | --- | --- | --- | --- | --- | --- | --- | --- | --- | --- |
| G000486: TTR sgRNA modified sequence, Human, SEQ ID No. 93; guide sequence of CR003339 (nucleic acid) guide: mA*mC*mA*rCrArArArUrArCrCrArGrUrCrCrArGrCrArGrUrUrUrUrArGrAmGmCmUmAmGmAmAmAmUmAmGmCrArArGrUrUrArArArArUrArArGrGrCrUrArGrUrCrCrGrUrUrArUrCrAmAmCmUmUmGmAmAmAmAmAmGmUmGmGmCmAmCmCmGmAmGmUmCmGmGmUmGmCmU*mU*mU*mU | 0.47% | 91.33% | ~91% | No indels were detected | one | 89.50% | 15.51 nM | – | – | – |
| G000480: TTR sgRNA modified sequence, Human, SEQ ID No. 87; guide sequence of CR003353 (nucleic acid) guide: mA*mA*mA*rGrGrCrUrGrCrUrGrArUrGrArCrArCrCrUrGrUrUrUrUrArGrAmGmCmUmAmGmAmAmAmUmAmGmCrArArGrUrUrArArArArUrArArGrGrCrUrArGrUrCrCrGrUrUrArUrCrAmAmCmUmUmGmAmAmAmAmAmGmUmGmGmCmAmCmCmGmAmGmUmCmGmGmUmGmCmU*mU*mU*mU | 0.97% | 97.33% | ~97% | No indels were detected | two | 84.60% | 0.57 nM | 1.43% | – | – |
| G000481: TTR sgRNA modified sequence, Human, SEQ ID No. 88; guide sequence of CR003345 (nucleic acid) guide: mU*mC*mU*rArGrArArCrUrUrUrGrArCrCrArUrCrArGrGrUrUrUrUrArGrAmGmCmUmAmGmAmAmAmUmAmGmCrArArGrUrUrArArArArUrArArGrGrCrUrArGrUrCrCrGrUrUrArUrCrAmAmCmUmUmGmAmAmAmAmAmGmUmGmGmCmAmCmCmGmAmGmUmCmGmGmUmGmCmU*mU*mU*mU | – | – | – | – | – | – | – | – | 61.28% | – |
| G000494: TTR sgRNA modified sequence, Human, SEQ ID No. 101; guide sequence of CR003360 (nucleic acid) guide: mG*mU*mG*rArGrUrCrUrGrGrArGrArGrCrUrGrCrArUrGrUrUrUrUrArGrAmGmCmUmAmGmAmAmAmUmAmGmCrArArGrUrUrArArArArUrArArGrGrCrUrArGrUrCrCrGrUrUrArUrCrAmAmCmUmUmGmAmAmAmAmAmGmUmGmGmCmAmCmCmGmAmGmUmCmGmGmUmGmCmU*mU*mU*mU | – | – | – | – | – | – | – | – | – | ~60% |
| G000499: TTR sgRNA modified sequence, Human, SEQ ID No. 106; guide sequence of CR005303 (nucleic acid) guide: mU*mG*mA*rArUrCrCrArArGrUrGrUrCrCrUrCrUrGrArGrUrUrUrUrArGrAmGmCmUmAmGmAmAmAmUmAmGmCrArArGrUrUrArArArArUrArArGrGrCrUrArGrUrCrCrGrUrUrArUrCrAmAmCmUmUmGmAmAmAmAmAmGmUmGmGmCmAmCmCmGmAmGmUmCmGmGmUmGmCmU*mU*mU*mU | – | – | – | – | – | – | – | – | 65.66% | ~60% |
